Experimental data: patent US20170008928A1, “NOVEL PEPTIDES AND PEPTIDE DERIVATIVES AND USES THEREOF” (Novo Nordisk A/S, priority 2015, published 2017)
Blank lines part the entries; values can stand above or below the molecule they belong to. Starred links: 1 amine or outer side, 2 acyl side, 3 side chain; linkers in the order of their positions; H or OH if unused. Non-standard residues stand in square brackets, D forms with d. Residues, ends and D or L forms follow the SMILES beside them. No end group written: not given here. *: point of attachment. Phe(4-CH2SO3H) = N[C@@H](Cc1ccc(CS(=O)(=O)O)cc1)C(=O)O; sY = N[C@@H](Cc1ccc(OS(=O)(=O)O)cc1)C(=O)O; C18 diacid = O=C(O)CCCCCCCCCCCCCCCCC(=O)*; NMe1Nal = CN[C@@H](Cc1cccc2ccccc12)C(=O)O; γGlu = O=C(O)[C@H](CCC(=O)[*:2])N[*:1]; NMeF = CN[C@@H](Cc1ccccc1)C(=O)O; dNMeD = CN[C@H](CC(=O)O)C(=O)O; Nle = CCCC[C@H](N)C(=O)O; AEEA = NCCOCCOCC(=O)O

How the values were obtained:
[1] = Chemical stability compared to CCK-8s, 8 mM phosphate pH 7.4, RP-UHPLC; format: physicochemical; conditions: for Absolute purity loss (pp): 1 mM in 8 mM sodium phosphate pH 7.4
Procedure: The resulting samples were stored in HPLC vials at 5° C. and 37° C. for 2 weeks. The samples were analysed in the beginning of the experiment (t=0), after one week and after two weeks by RP-UHPLC with a mobile phase containing phosphate and with a gradient of acetonitrile. UV detection at 215 nm was used. Samples after one week and two weeks were analysed twice. The calculations were done as described above, and the results are summarised in Table 7 (average of two determinations).

[2] = molecular target: T1, human cholecystokinin-2 receptor (CCK-2R) (Homo sapiens, UniProt P32239); experiment: In vitro potency on CCK-2R, whole cell functional assay (IP1 accumulation, IP-One HTRF); format: cell-based; conditions: 1321-N1 cells stably expressing CCK-2R; IP1 accumulation; highest dose tested 1×10^6 pM; read-out: EC50 (CCK-2R)
T1 construct: host or cells: 1321-N1 cells (plasma membranes prepared by Evotec AG Hamburg)
T1 sequence (P32239 1-447): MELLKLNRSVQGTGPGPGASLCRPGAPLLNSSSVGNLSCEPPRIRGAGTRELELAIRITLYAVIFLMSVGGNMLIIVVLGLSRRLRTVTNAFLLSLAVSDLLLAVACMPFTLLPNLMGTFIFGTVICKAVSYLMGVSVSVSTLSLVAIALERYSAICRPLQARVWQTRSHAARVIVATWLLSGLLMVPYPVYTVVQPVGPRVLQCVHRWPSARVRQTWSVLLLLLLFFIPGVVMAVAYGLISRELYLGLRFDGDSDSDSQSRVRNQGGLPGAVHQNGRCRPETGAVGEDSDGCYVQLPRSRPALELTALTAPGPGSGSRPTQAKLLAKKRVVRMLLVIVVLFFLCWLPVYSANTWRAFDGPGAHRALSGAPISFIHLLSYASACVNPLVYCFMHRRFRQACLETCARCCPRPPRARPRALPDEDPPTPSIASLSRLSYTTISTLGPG

[3] = Pharmacokinetic (PK) studies in mini-pig, i.v.; format: in vivo; conditions: i.v. 5 nmol/kg, female Göttingen mini-pigs, harmonic mean; for half-life: minipig, plasma, iv, read-out: Plasma terminal half-life (T½) (converted)
Procedure: The purpose of this study is to determine the protraction in vivo of a number of CCK derivatives of the invention after intravenous (i.v.) administration to mini-pigs, i.e. the prolongation of their time in the body and thereby their time of action. This was done in pharmacokinetic (PK) studies, where the terminal half-life of the derivative in question was determined. By terminal half-life is generally meant the period of time it takes to halve a certain plasma concentration, measured after the initial distribution phase.
The derivatives of the compounds listed in Table 4 were subjected to PK studies as described in the following.
Female Göttingen mini-pigs obtained from Ellegaard Göttingen Minipigs (Dalmose, Denmark) at approximately 6 months of age and weighing approximately 17 kg were used in the studies. […] Additional blood samples were collected for the derivatives of Examples 2, 4, 7, 8, and 9 at the following time points: 5, 12, 22, 28 and 144 hours. The blood samples were collected into test tubes containing EDTA buffer for stabilisation and kept on ice for max. 20 minutes before centrifugation. The centrifugation procedure to separate plasma was: 4° C., approx. 2500 g for 10 minutes. Plasma was collected and immediately transferred to Micronic tubes stored at −20° C. until assayed.
Plasma was pipetted into Micronic tubes on dry ice, and kept at −20° C. until analysed for plasma concentration of the respective CCK derivative using LC-MS. The plasma samples (including standard curve samples used for quantitation of unknowns and prepared from blank plasma spiked with CCK compound at a concentration range of 0.5-2000 nM for the compounds of Examples 3, 5, 6 or 0.5-1000 nM for the remaining Example compounds) were protein precipitated using three volumes of methanol and centrifuged (16000×g, 4° C., 20 min). The supernatants were injected into the chromatographic system (TurboFlow Transcend 1250 & 10 valve VIM, Thermo Fisher Scientific) which consisted of an initial Turboflow Cyclone purification column 0.5×50 mm (Thermo Fischer Scientific) and an eluting Aeris peptide 3.6 μm XB—C18 column 2.1×50 mm (Phenomenex) kept at 60° C.
The CCK derivatives of Examples 2-9 were eluted using LC-MS method I: A chromatographic gradient system with mobile phases consisting of water with 0.1 v/v % formic acid (mobile phase A) and water/acetonitrile 10/90 v/v with 0.1 v/v % formic acid (mobile phase B). The 2 minute gradient started at 60% mobile phase B and ended at 100% mobile phase B with a flow of 0.4 mL/min. The CCK derivatives were detected and quantified after on-line infusion of the LC flow to the LTQ OrbiTrap Discovery mass spectrometer (Thermo Fischer Scientific) equipped with an electrospray interface operated in negative mode, ESI− (Sheath gas flow rate at 40, Aux gas flow rate at 30, Sweep gas flow rate at 2, Spray voltage at 2.8 kV, Capillary temp. at 275° C., S-lens RF level at −125 and Heater temp. at 325° C.).
The remaining Example compounds were eluted using LC-MS method II: A chromatographic gradient system with mobile phases consisting of water with 1 v/v % formic acid (mobile phase A) and water/acetonitrile 10/90 v/v with 1 v/v % formic acid (mobile phase B). The initial 0.25 minute gradient started at 0% mobile phase B and ended at 70% mobile phase B followed by the second 2.2 minute gradient started at 70% mobile phase B and ended at 75% mobile phase B with a flow of 0.4 mL/min. These CCK derivatives were detected and quantified as described above except that the Spray voltage was 4.0 kV.
Individual plasma concentration-time profiles were analysed by a non-compartmental model in Phoenix v. 6.3 (Pharsight Inc., Mountain View, Calif., USA).

[4] = molecular target: T1, human cholecystokinin-2 receptor (CCK-2R); experiment: In vitro receptor binding to CCK-2R, SPA displacement of [125I]-CCK-8s from plasma membranes
[5] = molecular target: T2, human cholecystokinin-1 receptor (human), P32238; experiment: cell-based or functional assay
T2 chain: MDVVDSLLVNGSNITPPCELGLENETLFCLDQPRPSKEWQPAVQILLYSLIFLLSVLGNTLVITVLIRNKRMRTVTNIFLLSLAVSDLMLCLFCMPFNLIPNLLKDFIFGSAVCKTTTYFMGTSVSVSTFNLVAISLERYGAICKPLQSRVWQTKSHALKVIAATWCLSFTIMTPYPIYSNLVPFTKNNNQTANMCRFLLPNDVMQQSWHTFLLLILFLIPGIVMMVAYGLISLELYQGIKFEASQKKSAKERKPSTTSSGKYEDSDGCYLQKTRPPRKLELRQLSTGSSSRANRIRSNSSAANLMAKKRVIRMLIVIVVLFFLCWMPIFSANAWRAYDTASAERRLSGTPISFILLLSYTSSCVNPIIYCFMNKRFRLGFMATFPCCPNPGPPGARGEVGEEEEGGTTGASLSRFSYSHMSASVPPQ

[6] = molecular target: T3, human cholecystokinin-2 receptor (human), P32239; experiment: cell-based or functional assay
T3 chain: T1 sequence (P32239 1-447)

[7] = molecular target: T2, human cholecystokinin-1 receptor …; experiment: SPA competition vs [125I]-CCK-8s, membranes
[8] = molecular target: T3, human cholecystokinin-2 receptor …; experiment: SPA competition vs [125I]-CCK-8s, membranes

Molecule: CCCC[C@H](NC(=O)[C@H](Cc1c[nH]c2ccccc12)NC(=O)CNC(=O)[C@H](CC(C)C)NC(=O)[C@H](Cc1ccc(CS(=O)(=O)O)cc1)NC(=O)[C@H](CC(=O)O)NC(=O)COCCOCCNC(=O)COCCOCCNC(=O)CC[C@H](NC(=O)CCCCCCCCCCCCCCCCC(=O)O)C(=O)O)C(=O)N(C)[C@H](CC(=O)O)C(=O)N(C)[C@@H](Cc1ccccc1)C(N)=O [Example 5, 2-[2-[2-[[2-[2-[2-[[(4S)-4-Carboxy-4-(17-carboxyheptadecanoylamino)butanoyl]amino]ethoxy]ethoxy]acetyl]amino]ethoxy]ethoxy]acetyl-Asp-Phe(4-sulfomethyl)-Leu-Gly-Trp-Nle-DMeAsp-MePhe-amide] ({C18 diacid-γGlu-AEEA-AEEA}-D[Phe(4-CH2SO3H)]LGW[Nle][dNMeD][NMeF]-NH2)
IC50 [4]: 380 nM
half-life [3]: 106 h

B1: 2-[2-[2-[[2-[2-[2-[[(4S)-4-Carboxy-4-(17-carboxyheptadecanoylamino)butanoyl]amino]ethoxy]ethoxy]acetyl]amino]ethoxy]ethoxy]acetyl-Asp-sTyr-Leu-Gly-Trp-Ile-DMeAs … (peptide)
peptide: {C18 diacid-γGlu-AEEA-AEEA}-D[sY]LGWI[DMeAsp][NMeF]-NH2
EC50 (CCK-1R) [5]: 0.18 nM
EC50 (CCK-2R) [6]: 260 nM
IC50 [7]: 0.1 nM
IC50 [8]: 2300 nM

B2: 2-[2-[2-[[2-[2-[2-[[(4S)-4-Carboxy-4-(17-carboxyheptadecanoylamino)butanoyl]amino]ethoxy]ethoxy]acetyl]amino]ethoxy]ethoxy]acetyl-Asp-sTyr-Leu-Gly-Trp-Pro-DMeAs … (peptide)
peptide: {C18 diacid-γGlu-AEEA-AEEA}-D[sY]LGWP[DMeAsp][NMeF]-NH2
EC50 (CCK-1R) [5]: 0.17 nM
EC50 (CCK-2R) [6]: 150 nM
IC50 [7]: 0.19 nM
IC50 [8]: 1000 nM

B3: 2-[2-[2-[[2-[2-[2-[[(4S)-4-Carboxy-4-(17-carboxyheptadecanoylamino)butanoyl]amino]ethoxy]ethoxy]acetyl]amino]ethoxy]ethoxy]acetyl-Asp-sTyr-Leu-Gly-Trp-Gln-DMeAs … (peptide)
peptide: {C18 diacid-γGlu-AEEA-AEEA}-D[sY]LGWQ[DMeAsp][NMeF]-NH2
EC50 (CCK-1R) [5]: 0.17 nM
EC50 (CCK-2R) [6]: > 1000 nM
IC50 [7]: 0.084 nM

B5: 2-[2-[2-[[2-[2-[2-[[(4S)-4-Carboxy-4-(17-carboxyheptadecanoylamino)butanoyl]amino]ethoxy]ethoxy]acetyl]amino]ethoxy]ethoxy]acetyl-Asp-sTyr-Leu-Gly-Trp-Val-DMeAs … (peptide)
peptide: {C18 diacid-γGlu-AEEA-AEEA}-D[sY]LGWV[DMeAsp][NMeF]-NH2
EC50 (CCK-1R) [5]: 0.14 nM
EC50 (CCK-2R) [6]: 730 nM
IC50 [7]: 0.31 nM
IC50 [8]: 6400 nM

B6: 2-[2-[2-[[2-[2-[2-[[(4S)-4-Carboxy-4-(17-carboxyheptadecanoylamino)butanoyl]amino]ethoxy]ethoxy]acetyl]amino]ethoxy]ethoxy]acetyl-Asp-sTyr-Leu-Gly-Trp-Leu-DMeAs … (peptide)
peptide: {C18 diacid-γGlu-AEEA-AEEA}-D[sY]LGWL[DMeAsp][NMeF]-NH2
EC50 (CCK-1R) [5]: 0.27 nM
EC50 (CCK-2R) [6]: 79 nM
IC50 [8]: 420 nM

Results, then the molecule that gave them:

purity at the start of the experiment (incubation time 0) ([1]; 1 mM in 8 mM sodium phosphate pH 7.4, t=0): 97.94%
Absolute purity loss (pp) ([1]; 5° C., 1 week): −0.04 pp
Absolute purity loss (pp) ([1]; 5° C., 2 weeks): 0.09 pp
Absolute purity loss (pp) ([1]; 37° C., 1 week): 1.42 pp
Absolute purity loss (pp) ([1]; 37° C., 2 weeks): 3.33 pp
Molecule: CSCC[C@H](NC(=O)[C@H](Cc1ccc(OS(=O)(=O)O)cc1)NC(=O)[C@@H](N)CC(=O)O)C(=O)NCC(=O)N[C@@H](Cc1c[nH]c2ccccc12)C(=O)N[C@@H](CCSC)C(=O)N[C@@H](CC(=O)O)C(=O)N[C@@H](Cc1ccccc1)C(N)=O [CCK-8s, H-Asp-Tyr(SO3H)-Met-Gly-Trp-Met-Asp-Phe-NH2]

EC50 [2]: 340 nM
Plasma terminal half-life (T½) [3]: 147 h
Molecule: CCCC[C@H](NC(=O)[C@H](Cc1c[nH]c2ccccc12)NC(=O)CNC(=O)[C@H](CC(C)C)NC(=O)[C@H](Cc1ccc(OS(=O)(=O)O)cc1)NC(=O)[C@H](CC(=O)O)NC(=O)COCCOCCNC(=O)COCCOCCNC(=O)CC[C@H](NC(=O)CCCCCCCCCCCCCCCCC(=O)O)C(=O)O)C(=O)N(C)[C@H](CC(=O)O)C(=O)N(C)[C@@H](Cc1cccc2ccccc12)C(N)=O [Example 4, 2-[2-[2-[[2-[2-[2-[[(4S)-4-Carboxy-4-(17-carboxyheptadecanoylamino)butanoyl]amino]ethoxy]ethoxy]acetyl]amino]ethoxy]ethoxy]acetyl-Asp-sTyr-Leu-Gly-Trp-Nle-DMeAsp-Me1Nal-amide] ({C18 diacid-γGlu-AEEA-AEEA}-D[sY]LGW[Nle][dNMeD][NMe1Nal]-NH2)

EC50 [2]: > 1000 nM
half-life [3]: 3 h
Molecule: CCCC[C@H](NC(=O)[C@H](Cc1c[nH]c2ccccc12)NC(=O)CNC(=O)[C@H](CC(C)C)NC(=O)[C@H](Cc1ccc(OS(=O)(=O)O)cc1)NC(=O)[C@H](CC(=O)O)NC(=O)CCCCCCCCCCCCCCCCC(=O)O)C(=O)N(C)[C@H](CC(=O)O)C(=O)N(C)[C@@H](Cc1ccccc1)C(N)=O [Example 38, 17-Carboxyheptadecanoyl-Asp-sTyr-Leu-Gly-Trp-Nle-DMeAsp-MePhe-amide]

EC50 (CCK-1R) [5]: 0.24 nM
EC50 (CCK-2R) [6]: > 1000 nM
IC50 [7]: 0.078 nM
IC50 [8]: 6100 nM
B4: Asp-sTyr-Leu-Gly-Trp-Ile-DMeAsp-MePhe-amide (peptide)
peptide: D[sY]LGWI[DMeAsp][NMeF]-NH2
